Measured values published in the Human Domainome abundance scans (Beltran et al. 2025).
± gives the uncertainty stated by the source.

B1: POU domain, class 4, transcription factor 3, residues 185 to 256; numbered along this chain, Q15319 (parent)
chain: RELEAFAERFKQRRIKLGVTQADVGAALANLKIPGVGSLSQSTICRFESLTLSHNNMIALKPVLQAWLEEAE
B2: Cullin-9, residues 2234 to 2275; numbered along this chain, Q8IWT3 (parent)
chain: KRCPSCQAPIEKNEGCLHMTCAKCNHGFCWRCLKSWKPNHKD

Variants of: B1
Assay: abundance fitness (aPCA) (normalised: wild type 0, dead -1); higher = more abundant; growth selection in yeast, the domain comes from the species named
Settings: Homo sapiens

Row | Variant | abundance fitness
1 | RYLEAFAERFKQRRIKLGVTQADVGAALANLKIPGVGSLSQSTICRFESLTLSHNNMIALKPVLQAWLEEAE [E2Y] | -0.686 ± 0.21

Variants of: B2
Assay: as above
Settings: Homo sapiens

Row | Variant | abundance fitness
2 | KRCPSCQAPIEKNEGCLHMTCAKCNHGFCWRCLKSWKPNHND [K41N] | -0.132 ± 0.37
3 | KRCPSCQAPIEKNEGCLHMTCAKCNHGFCWRCLKSWKPNHLD [K41L] | -0.295 ± 0.12
4 | KRCPSCQAPIEKNEGCLHMTCAKCNHGFCWRCLKSWKPNHRD [K41R] | -0.128 ± 0.094
5 | KRCPSCQAPIEKNEGCLHMTCAKCNHGFCWRCLKSWKPNHPD [K41P] | 0.318 ± 0.12
6 | KRCPSCQAPIEKNEGCLHMTCAKCNHGFCWRCLKSWKPNHVD [K41V] | 0.255 ± 0.1
7 | KRCPSCQAPIEKNEGCLHMTCAKCNHGFCWRCLKSWKPNHWD [K41W] | -0.646 ± 0.15
8 | KRCPSCQAPIEKNEGCLHMTCAKCNHGFCWRCLKSWKPNHCD [K41C] | 0.578 ± 0.28
9 | KRCPSCQAPIEKNEGCLHMTCAKCNHGFCWRCLKSWKPNHAD [K41A] | 0.047 ± 0.081
10 | KRCPSCQAPIEKNEGCLHMTCAKCNHGFCWRCLKSWKPNHMD [K41M] | -0.373 ± 0.23
11 | KRCPSCQAPIEKNEGCLHMTCAKCNHGFCWRCLKSWKPNHED [K41E] | 0.281 ± 0.096
12 | KRCPSCQAPIEKNEGCLHMTCAKCNHGFCWRCLKSWKPNHTD [K41T] | -0.277 ± 0.17
13 | KRCPSCQAPIEKNEGCLHMTCAKCNHGFCWRCLKSWKPNHHD [K41H] | 0.256 ± 0.21
14 | KRCPSCQAPIEKNEGCLHMTCAKCNHGFCWRCLKSWKPNHSD [K41S] | -0.038 ± 0.12
15 | KRCPSCQAPIEKNEGCLHMTCAKCNHGFCWRCLKSWKPNHKR [D42R] | -0.951 ± 0.2
16 | KRCPSCQAPIEKNEGCLHMTCAKCNHGFCWRCLKSWKPNHKA [D42A] | -0.117 ± 0.12
17 | KRCPSCQAPIEKNEGCLHMTCAKCNHGFCWRCLKSWKPNHKK [D42K] | -0.487 ± 0.37
18 | KRCPSCQAPIEKNEGCLHMTCAKCNHGFCWRCLKSWKPNHKL [D42L] | -0.444 ± 0.15
19 | KRCPSCQAPIEKNEGCLHMTCAKCNHGFCWRCLKSWKPNHKC [D42C] | 0.214 ± 0.12
20 | KRCPSCQAPIEKNEGCLHMTCAKCNHGFCWRCLKSWKPNHKT [D42T] | -0.073 ± 0.14
21 | KRCPSCQAPIEKNEGCLHMTCAKCNHGFCWRCLKSWKPNHKM [D42M] | -0.77 ± 0.37
22 | KRCPSCQAPIEKNEGCLHMTCAKCNHGFCWRCLKSWKPNHKP [D42P] | -0.158 ± 0.19
23 | KRCPSCQAPIEKNEGCLHMTCAKCNHGFCWRCLKSWKPNHKW [D42W] | -0.692 ± 0.26
24 | KRCPSCQAPIEKNEGCLHMTCAKCNHGFCWRCLKSWKPNHKF [D42F] | -0.729 ± 0.24

Row | Variant | abundance fitness
25 | KRCPSCQAPIEKNEGCLHMTCAKCNHGFCWRCLKSWKPNHKV [D42V] | -0.359 ± 0.16
26 | KRCPSCQAPIEKNEGCLHMTCAKCNHGFCWRCLKSWKPNHKE [D42E] | -0.09 ± 0.13
27 | KRCPSCQAPIEKNEGCLHMTCAKCNHGFCWRCLKSWKPNHKS [D42S] | -0.387 ± 0.13
28 | KRCPSCQAPIEKNEGCLHMTCAKCNHGFCWRCLKSWKPNHKG [D42G] | -0.21 ± 0.11
29 | KRCPSCQAPIEKNEGCLHMTCAKCNHGFCWRCLKSWKPNCKD [H40C] | -0.24 ± 0.14
30 | KRCPSCQAPIEKNEGCLHMTCAKCNHGFCWRCLKSWKPNEKD [H40E] | 0.182 ± 0.11
31 | KRCPSCQAPIEKNEGCLHMTCAKCNHGFCWRCLKSWKPNYKD [H40Y] | -0.451 ± 0.32
32 | KRCPSCQAPIEKNEGCLHMTCAKCNHGFCWRCLKSWKPNWKD [H40W] | -0.427 ± 0.094
33 | KRCPSCQAPIEKNEGCLHMTCAKCNHGFCWRCLKSWKPNSKD [H40S] | 0.066 ± 0.11
34 | KRCPSCQAPIEKNEGCLHMTCAKCNHGFCWRCLKSWKPNGKD [H40G] | -0.102 ± 0.073
35 | KRCPSCQAPIEKNEGCLHMTCAKCNHGFCWRCLKSWKPNQKD [H40Q] | -0.123 ± 0.14
36 | KRCPSCQAPIEKNEGCLHMTCAKCNHGFCWRCLKSWKPNTKD [H40T] | -0.359 ± 0.13
37 | KRCPSCQAPIEKNEGCLHMTCAKCNHGFCWRCLKSWKPNKKD [H40K] | -0.319 ± 0.15
38 | KRCPSCQAPIEKNEGCLHMTCAKCNHGFCWRCLKSWKPNFKD [H40F] | -0.089 ± 0.35
39 | KRCPSCQAPIEKNEGCLHMTCAKCNHGFCWRCLKSWKPNAKD [H40A] | 0.05 ± 0.077
40 | KRCPSCQAPIEKNEGCLHMTCAKCNHGFCWRCLKSWKPNPKD [H40P] | -0.091 ± 0.11
41 | KRCPSCQAPIEKNEGCLHMTCAKCNHGFCWRCLKSWKPNRKD [H40R] | -0.283 ± 0.087
42 | KRCPSCQAPIEKNEGCLHMTCAKCNHGFCWRCLKSWKPNMKD [H40M] | 0.13 ± 0.1
43 | KRCPSCQAPIEKNEGCLHMTCAKCNHGFCWRCLKSWKPNDKD [H40D] | 0.111 ± 0.25
44 | KRCPSCQAPIEKNEGCLHMTCAKCNHGFCWRCLKSWKPNVKD [H40V] | 0.006 ± 0.086
45 | KRCPSCQAPIEKNEGCLHMTCAKCNHGFCWRCLKSWKPWHKD [N39W] | -0.176 ± 0.087
46 | KRCPSCQAPIEKNEGCLHMTCAKCNHGFCWRCLKSWKPYHKD [N39Y] | -0.384 ± 0.29
47 | KRCPSCQAPIEKNEGCLHMTCAKCNHGFCWRCLKSWKPVHKD [N39V] | -0.095 ± 0.09
